Source: publication PMC11081511

Test system: Phloem protein 2 (PP2), 26 kDa major variant (cucumber)
Test: northwestern
Conditions: Northwestern: 10 mM Tris-HCl pH 7.5, 1 mM EDTA, 100 mM NaCl, 0.02% Ficoll 400, 0.02% PVP-40, 1% BSA, 5 pmol probe, 50 ug/ml yeast tRNA, renaturation 25 C. …

Substance	binding signal (fold vs PEMV2)	binding signal (reference for fold values)
CY1 D-RNA	10	
CY1 full-length RNA	7.5	
PEMV2 RNA		1
